Measurements reported in PMC13044992.

Tests used:
[1] = biological target: S100i2 from Danio rerio (wild type) (Danio rerio) (UniProt A3FKT8); assay: SEC; 24 mL Superdex 75 Increase 10/300 GL, 20 mM Tris-HCl pH 7.5, 100 mM NaCl; self-association (homodimer)
[2] = biological target: S100i2 from Danio rerio (wild type) (Danio rerio) (UniProt A3FKT8); assay: crystal structure; sitting-drop vapor diffusion at 291 K, 10 mg/mL protein; apo S100i1 (0.2 M Li sulfate, Tris-HCl pH 8.5, 25% PEG 4000), Na+-S100i1 (0.2 M Na acetate, Tris-HCl pH 9.5, 35% PEG 4000), Mg2+-S100i2 (0.2 M MgCl2, Tris-HCl pH 8.5, 30% PEG 4000)
[3] = biological target: S100i1 from Danio rerio (wild type) (Danio rerio) (UniProt Q6XG62); assay: SEC; 24 mL Superdex 75 Increase 10/300 GL, 20 mM Tris-HCl pH 7.5, 100 mM NaCl; self-association (homodimer)
[4] = biological target: S100i1 from Danio rerio (wild type) (Danio rerio) (UniProt Q6XG62); assay: crystal structure; sitting-drop vapor diffusion at 291 K, 10 mg/mL protein; apo S100i1 (0.2 M Li sulfate, Tris-HCl pH 8.5, 25% PEG 4000), Na+-S100i1 (0.2 M Na acetate, Tris-HCl pH 9.5, 35% PEG 4000), Mg2+-S100i2 (0.2 M MgCl2, Tris-HCl pH 8.5, 30% PEG 4000)

stoichiometry N [1]	stoichiometry N [2]	stoichiometry N [3]	stoichiometry N [4]	Substance
2	2	–	–	S100i2 from Danio rerio (wild type) (from UniProt A3FKT8 1-97) (natural protein)
–	–	2	2	S100i1 from Danio rerio (wild type) (from UniProt Q6XG62 1-95) (natural protein)
